B1: 单域抗体4D8 (VHH)
VHH: QVQLVESGGGLVQPGGSLRLSCAASGNIDSTRYHGWFRQAPGKGLEAVAAIKGVWPEDYYADSVKGRFTISRDNSKNTLYLQMNSLRAEDTAVYYCAADQYEWWVPGEVGPYLYWGQGTQVTVSS
B2: 单域抗体2F2 (VHH)
VHH: QVQLVESGGGLVQPGGSLRLSCAASGLAQSKWAYGWFRQAPGKGLEAVAAIDVATGPWYYADSVKGRFTISRDNSKNTLYLQMNSLRAEDTAVYYCAAHHIPTKHPAFPDFRDYWGQGTQVTVSS
B3: 单域抗体5F8 (VHH)
VHH: QVQLVESGGGLVQPGGSLRLSCAASGRQAVVFGWFRQAPGKGLEAVAAIHVPAKNRYYADSVKGRFTISRDNSKNTLYLQMNSLRAEDTAVYYCAAHYEFNDFVWQGYSSDYWGQGTQVTVSS
B4: 单域抗体1E2 (VHH)
VHH: QVQLVESGGGLVQPGGSLRLSCAASGADAFVIIGGWFRQAPGKGLEAVAAIAWTDQHEYYADSVKGRFTISRDNSKNTLYLQMNSLRAEDTAVYYCAAQDSAYIKSKGSRAYEYWGQGTQVTVSS
B5: 单域抗体3F11 (VHH)
VHH: QVQLVESGGGLVQPGGSLRLSCAASGGNAAERMAGWFRQAPGKGLEAVAAIYYAKFGPYYADSVKGRFTISRDNSKNTLYLQMNSLRAEDTAVYYCAAEAFVQSPYSGSHTTKYWGQGTQVTVSS

What was measured:
[1] = molecular target: T1, SARS-CoV-2刺突蛋白RBD区重组蛋白 (SARS-CoV-2, UniProt P0DTC2 319-541); assay: SPR, BIAcore T-200; range told of the group, this end tied to 4D8 by table 1
[2] = molecular target: T1, SARS-CoV-2刺突蛋白RBD区重组蛋白; assay: SPR, BIAcore T-200, RBD amine-coupled on CM5 chip, VHH in flow
[3] = molecular target: SARS-CoV-2病毒的包膜刺突糖蛋白(即S蛋白) (SARS-CoV-2, UniProt P0DTC2 14-1273); assay: cell-based or functional assay
[4] = molecular target: T1, SARS-CoV-2刺突蛋白RBD区重组蛋白; assay: SPR, BIAcore T-200; range told of the group, this end tied to 5F8 by table 1

Binder	Kd [1] [nM]	Kd [2] [nM]	koff [2] [s⁻¹]	kon [2] [M⁻¹ s⁻¹]	抑制SARS-CoV-2假型病毒感染 IC50 (luciferase, Calu-3细胞) [3] [µg/mL]	Kd [4] [nM]
B1	33.9	34	0.00613	180000	0.247	
B2		0.846	0.000313	370000	0.0235	
B3		0.716	0.000211	295000	0.00338	0.71
B4		21.1	0.00518	245000	0.31	
B5		3.15	0.00675	2.14e+06	0.0038	
